The target of one test is GST-CypA (human cyclophilin A fused to GST), P62937-1. Nature of the test: His6-HIVCA pull-down assay, SDS/PAGE band densitometry. As to conditions: n = 3; *P < 0.05; parent: est. 0.45; read off a plot.
As for “wild-type HIV-1 capsid protein with an N-terminal 6-his tag (His6-HIVCA) (from UniProt P04591) A77P”, the other: CypA/CA ratio came out at 0.063.

Still in this test, the particulars now being: n = 3; parent: est. 0.45; read off a plot.
Take “wild-type HIV-1 capsid protein with an N-terminal 6-his tag (His6-HIVCA) (from UniProt P04591) A78V”: the other: CypA/CA ratio is 0.43.

For “wild-type HIV-1 capsid protein with an N-terminal 6-his tag (His6-HIVCA) (from UniProt P04591) L189F”, the other: CypA/CA ratio was 0.53.

For “wild-type HIV-1 capsid protein with an N-terminal 6-his tag (His6-HIVCA) (from UniProt P04591) L189I”, the other: CypA/CA ratio is 0.36.

For the substance “wild-type HIV-1 capsid protein with an N-terminal 6-his tag (His6-HIVCA) (from UniProt P04591) L189P”, the other: CypA/CA ratio is 0.43.

As to “wild-type HIV-1 capsid protein with an N-terminal 6-his tag (His6-HIVCA) (from UniProt P04591) W23A”, the other: CypA/CA ratio amounted to 0.26.

These data come from paper PMC4971840.
